# Test: soluble on expression in E. coli; label from the status in PepcDB or PDB records
row,Sequence,soluble on expression in E. coli
1,MSLNAIARQEPFDLNDPALRARAVAAARGDAPFDMLITGGRLLDAVTGLIREADIGLVGALIASVHAPASRTDAVEIIDATGGILTPGLIDMHMHVESSMVTPAEYASAVLPHGVTTVVWDPHEFGNVQGLDGVRWAIEAARTLPLRMILLAPSCVPSAPGLELAGADFDAAVIAEMLRSPAVGGVAEVMNMRGVIDGDPRMSAIVNSGLASGKLVCGHARGLTGADLNAFMAAGVTSDHELTSGADLAAKLSAGLTIELRGSHDHLLQEFVEVLNGLGHLPATVTLCTDDVFPDELYQSGGLDEVARRLVRYGMKPEWALRAATFNAAQRLKRSDLGLVASGRRADLVLFEDLTELRARLVISDGRIVARNGSMEAAVQPLDTAPLINSTKLPPLTESDFRVPAKGARVRIATIDRPRFTQWGEAETEIRDGFVVPPAGSAMIAVAHRHGKAGGTPRIGFLTGWGEWRGAFCTTVSHDSHNLTVFGGDARDMALAANAVIKAGGGLAVAKDGAIQAILPLPLSGLVTDASLKDTASAFSDIRKAMDKIVDWKPPYRVFKACFGATLACNAGPHQTDRGIADVTTGKVLESPVLEIEGHHHHHH,soluble
2,MSLTVRLRPHHLLCMLTYIGKGYTSGFVENYDRVAFRLNAGEDIELVEGADDVCEGLLCESHAHCFNDGIVQRDETARLSVSTLLGETLIAGKRLRVTPDFLAKMRLAFAAGDIRQACRGCQWIKLCDRIAASGFAGVKIGVPSQVVPKDATRHPMLRPKYGPSGRKLEGHHHHHH,not soluble
3,MRLAFFGDVHGNFEALKAVLEDMENKGVDEVFCLGDLVGYGPDPEAVVQTIMEKNIKTIMGNYDDAVGYSKESCGCSYAPGRETEVGDISLKWSIENTSEKTREFLRNLPKKLSFEVEGVRFLLVHGSPLNELLEYVKPNTPPDRLKKIVESVEENVVVNGHTHLPMVKWVMGKLVLNPGSAGRPKDGDPRASYMIVDVENGTVSFEIVRVRYDVKTTVEKIARNGLPVELATVLALGQTFDMGPGKVTFTLGR,soluble
4,MAGASHDIHPPKVEYFDLRDHTNTDPKGFVRHVDHYRVEPWGLYMARTSDHPQFHYLESWLLPDLGLRASIFHYHPYHQRDQDHYVDIGTFTRGDDVWKSEDHYLDLVVRTGRDTELLDVDELMEAHTTGLLDTATAEQAILTATTAIDGIAAHGHDLGRWLASIGMPIDWR,soluble
5,MKLIRGIHNLSQAPQEGCVLTIGNFDGVHRGHRALLQGLQEEGRKRNLPVMVMLFEPQPLELFATDKAPARLTRLREKLRYLAECGVDYVLCVRFDRRFAALTAQNFISDLLVKHLRVKFLAVGDDFRFGAGREGDFLLLQKAGMEYGFDITSTQTFCEGGVRISSTAVRQALADDNLALAESLLGHPFAISGRVVHGDELGRTIGFPTANVPLRRQVSPVKGVYAVEVLGLGEKPLPGVANIGTRPTVAGIRQQLEVHLLDVAMDLYGRHIQVVLRKKIRNEQRFASLDELKAQIARDELTAREFFGLTKPA,soluble
6,MGSDKIHHHHHHMTNLVTLENVSVAFGQRRVLSDISLALTPGKILTLLGPNGAGKSTLVRVVLGLVAPTEGVIKRDARLRIGYVPQKLHLDATLPLTVSRFLRLRPGTRKDDILPALKRVQAGHLIDAPMQKLSGGETQRVLLARALLNRPQLLVLDEPTQGVDVNGQVALYDLINQLRHELDCAVLMVSHDLHLVMAKTDEVLCLNQHICCSGAPEVVSMHPEFISMFGPRGAEQLGIYRHHHNHRHDLQGRIVLRRGNSR,not soluble
7,SFHGIPATPGIGAPGNKPELYEEVKLYKNAREREKYDNMAELFAVVKTMQALEKAYIKDCVSPSEYTAACSRLLVQYKAAFRQVQGSEISSIDEFCRKFRLDCPLAMERIKEDRPITIKDDKGNLNRCIADVVSLFITVMDKLRLEIRAMDEIQPDLRELMETMHRMSHLPPDFEGRQTVSQWLQTLSGMSASDELDDSQVRQMLFDLESAYNAFNRFLHA,soluble
8,MGHHHHHHSHMAFILCPLTCPGECEGSTGKLECCLCLPSQWAVLTAAPHPYRWSQEAGRVGEGKIGKTGRPRPRQNSLSSLHFWSPVVMCL,not soluble
9,MRKYKLGIYEKALPKNISWQDRLSIAKSCGFDFVEMSIDETDERLARLEWSKEQRLALVNSIVTTGITIPSMCLSGHRRFPFGTRDQATREKAYEIMEKAIQFAVDTGIRTIQLAGYDVYYEEQDQGTIERFQQGLAWAVELAASNQVTLAVEIMDTPFMSSISRWKKWDEMINSPWFTVYPDIGNLSAWNDNIEQELALGINKISAIHLKDTYKITKDCAGQFRDVPFGDGCVDFKGFFEILAKLNYRGAFLIEMWTEKAEEPIAEIINARRWIEQKMKEGGFEC,not soluble
10,GPGSMLEEVLKCYEEMKDPAAHQLAEAALPKLMEALGEESENSVMEVMLRCIGRCVSVHPAIMSPTNTALVCDKVMAALEVVVKRRNECLQKKATENDEDELDALEVEDEEVHLTISSMCDLIGTLLAASKEVFAAPFLEKAFPVLGEWLQASTDDFYMTRAAGILSDFVTHAPQSIVPSLPQICASSLTIASSSSDDGLLQSDFYLMNVIVQLLGSHATTNMGVDGGEYAVHVQQVAEKYFSSNLVNQEEYTHCTCNVISLYVSLLNFYGTTVLQQAATSMLTVVGKALPAKDDEIEARRIHDVVLGWVTNNHPVLQALPGSTAGFLTCVKAASPNCLSEQAKQYLASM,soluble
11,MRALRRGKGITLKQLAKALNKNISRGEAKNTESQIGNWERGERNPNYLEVKKLADYFDVSIDYLVGRYNNDQVDLAKAMITSSKLTYNDTPLDNNDKYEILQLISGYLHARGRRSTGDLININHQESLDLFNNQNDF,not soluble
12,MSSKNSLSDKIKITFQYIMPKHAISRLVGKLAAAKMGWLTTKLISMFIKAYGINMNEAKLKKASDFDTFNNFFTRELEEGARIIDNDENTICYPVDGAISQQGDIIDGQLIQAKGFNYSVTSLLGGDEKTAAPFQGGKFSCIYLAPKDYHRIHMPMAATLREMIYVPGELFSVNPLTAQNVPDLFARNERVVAIFDTEMGELAMVLVGATIVASIETTWAGTITPPAGKDIFRWQYPKDGADAITFEKGDEMGRFKLGSTVVSTFAPNMISEFATDAGPGTVTRLGEIYAALDKSASLEHHHHHH,not soluble
13,MHHHHHHSSGVDLGTENLYFQSMASGANFEYIIAEKRGKNNTVGLIQLNRPKALNALCDGLIDELNQALKIFEEDPAVGAIVLTGGDKAFAAGADIKEMQNLSFQDCYSSKFLKHWDHLTQVKKPVIAAVNGYAFGGGCELAMMCDIIYAGEKAQFAQPEILIGTIPGAGGTQRLTRAVGKSLAMEMVLTGDRISAQDAKQAGLVSKICPVETLVEEAIQCAEKIASNSKIVVAMAKESVNAAFEMTLTEGSKLEKKLFYSTFATDDRKEGMTAFVEKRKANFKDQ,soluble
14,MAAPKLGFFEKIANLTGALYRHQHAQFPRRFAILKAVGKHELAPPRQADWPAIKADWAKVQSFIQTGGYKNLSIREGLVYTAVTLEVVFWFFVGEMIGRRYIFGYLVPADYVSKSTKKTVKEQEALAALEN,not soluble
15,RSSLRKKEFGSKERLLEELRCKKTVLHEVDVTLDPDTAHPHLFLYEDSKSVRLEDSRQILPDRPERFDSWPCVLGRETFTSGRHYWEVEVGDRTDWAIGVCRENVVKKGFDPMTPDNGFWAVELYGNGYWALTPLRTSLRLAGPPRRVGVFLDYDAGDISFYNMSNGSLIYTFPSISFSGPLRPFFCLWSCGKKPLTICSTANGPEKVTVIANVQDD,not soluble
16,MGSDKIHHHHHHMLRAGWFFEGIQDNDLLKLKEACKAFNLDGVLLSSLVLSRLYGVCYVLLGTVDGGDLDQPFDLNKLGIGRLEFFTVLKKKYIEADTSKYLSPKEAGGLLKQPEFYKLKLDGKSTQRIHHTRLYKFGHADVVNEEPVSVLQEVYEDLLDHAAVKKASASLVHESKIDVIRTPNLVDKIKEDMKSVAERFLSVGLLKGLNGMIVLDKEEEYDSKSYSFGGLPDLMREFSIQAAGAADMPYTILFGQSPAGMNATGEHDTRNYYDSIATKQTWSLKPFMMKLLRVIVQTTFGRQIPSLDVVFNPLWQLDAKVRSEVEKANAERDSKYLEMGIITEPQIAKQLVIDGVYSVIDEAHIKELETMVKLNDNDNSDPETTPPAGEET,not soluble
17,MTQISERLLVQAHLDAKQPNPLTAEQEAEYRAAIAAELKAQNAVLVAHYYCDPVIQALAEETGGCVSDSLEMARFGKNHPAETVIVAGVRFMGETAKILTPEKRVLMPTLEATCSLDLGCPVEEFSAFCDQHPERTVVVYANTSAAVKARADWVVTSSCALEIVESLMDNGETIIWGPDQHLGRYIQKQTGADMLLWDGACIVHEEFKSRQLADMKALYPDAAILVHPESPEAVIELADAVGSTSQLIKAAQTLPNKTFIVATDRGIFYKMQQLCPDKEFVEAPTAGNGAACRSCAHCPWMAMNTLERVLDCLRNGTNEIFVDPALVPKAIKPLNRMLDFTQAARLKLSGNALEHHHHHH,not soluble
18,MSIQYEAPLADSYGVADSFPKDFGYGEEEGDIEDSPSPSDSKPRILLMGLRRSGKSSIQKVVFHKMSPNETLFLESTNKIYKDDISSSSFVNFQIWDFPGQVDFFDPTFDYELIFRGTGALIFVIDAQDDYVEALSRLHLTVSRAYRVNPEINFEVFIHKVDGLSDDHKIETQRDIHQRANDDLADASLEKLHLSFYLTSIYDHSIFEAFSKVVQKLIPQLPTLENLLNIFISNSGIEKAFLFDVVSKIYIATDSSPVDMQSYELCCDMIDVVIDVSCIYGLKEDGSGSAYDKESMAIIKLNNTTVLYLKEVTKFLALVCILRGESFERKGLIDYNFHCFRKAIHEVFEVGVSTSRTSNQPVGTPLMKTVALNGTPRSTV,soluble
19,MGSDKIHHHHHHMNLKTSIENNVHIRAVAAAADELGLETYIVGGYVRDLIMDRDNKDIDFVCLGSGIELAQKVAANMGEHVQVHIFKTFGTAMINAGDTELEFVGARKESYDFNSRKPTVESGTLEDDQLRRDFTINALAICLNKARFGELVDPFDGVSDIKRKIIKTPQDALLTFSDDPLRMIRAVRFATQLNFDIEAATFQAIATNKDRLSIVSMERISQELNKIISAPVPSYGFKLLYISGVLKDIFPEFVALHGVESIDNKSHKDNFYHTLQVLDNVAKVSDDLWLRWAAILHDIAKPLTKRFVERIGWTFHGHEDKGARMVPAIFRKLRLPLNEKMDMVAKLVRLHLRPISLVKDEVTDSAVRRLMFEAGEHFSDLMILCRADVTSKNNNKVKRYLENFDKVERKVIEVEEKDQQRNFQPVVSGEDIMKTFDIKPGKVIGDIKADLIEAILEGDVQNEYEILFPFMINLAEKKYGLVKPETH,not soluble
20,MGSDKIHHHHHHMSQTLLALYGLKWNPFSADLPIAAVSVPPKVEDFCWRIEHALVREGGFALIQGDPGTGKSVILRLLAERLSRLPDLTVGAIHHPQSNLADFYRELGDIFAVSLKPSNRWGGFKALRERWLAHLEATRRRPVLLIDEAQEMNAPVLCELRLLSSARFDSQSLLSVLLAGDARLTEKLRREELVPLGSRIRVRLHTESASRNELLGCLEHLMTEAGNAGLMTAGLCQTLCDHAMGNYRVLTQMAAELLAAATQRQLDQLDEKLFLELYGPAQQPARRKAAH,not soluble
21,MGSDKIHHHHHHVELHQLKDLLTEKLQATSLIHATISAPRLKSNDLRRIKVKPILLRDTYAIQLEFQHERIIKHENLSIEEFIVRMDQFFDEFRQFLFRFETEEVQFQLSKKMKVSIKTTVKEPIQAELSHNRKKSHLLEDGVPVPFLIRLGVMTEEGQVKRQKYDKFKQINRFLEFVEDSIAVLPKGRTLRILDFGCGKSYLTFALYHYLKIVKGFDLNVTGLDLKKEVIEECAAIAADLGYDDLSFRVGDVHDYDQDTEVDLMVTLHACDVATDVALARAVDWNASVILSVPCCQKELNRQLDCSPLDVMLQHGLIQEKFASLATDSIRAELLTLVGYETQLLEFIDLENTPKNILIRAYKNPKRPTEEKIDRYIAFRELLHAKPYLERELSGRLGQISSKLVQ,not soluble

# Reference: the DeepSol protein solubility set
